Results reported in patent US10426871B2, “Nanostructure surface coated medical implants and methods of using the same” (The Regents of the University of California, priority 2007, dated 2019).

How the values were obtained:
[1] = Release of proteins from nanotubes into PBS (Micro-BCA); assay type: physicochemical; set-up: time point at which all the protein is released from the nanotubes: unit: min; conditions: for time point at which all the protein is released from the nanotubes: PBS, room temperature, 70 rpm
Procedure: In order to release the proteins from the nanotubes, the surfaces were immersed in 500 μl of PBS in a 24-well plate at room temperature with orbital shaking at 70 rpm. 200 μl of samples were taken after specific intervals of time to determine the release kinetics. Samples were collected periodically for up to 120 minutes. The solution was replaced with 200 μl of fresh PBS every time the samples were taken. The samples were analyzed for protein content using a commercially available Micro-BCA assay kit and the concentration was adjusted for dilutions due to replacement of fresh PBS.

[2] = cited from earlier work
[3] = XPS of protein-loaded and protein-adsorbed nanotube surfaces; assay type: physicochemical; conditions: Adsorbed (control)
Procedure: To evaluate the differences in amounts of protein in nanotubes, X-ray photoelectron spectroscopy (XPS) analysis was carried out. XPS is a surface sensitive technique which can detect changes in surface composition for up to 2-20 atomic layers, depending on the material. Since the nanotubes are approximately 400 nm long, XPS can be used to verify the differences in surface concentrations due to different amounts of BSA and LYS loaded. The loaded nanotube surfaces along with adsorbed surfaces were mounted on an XPS stage. Three spots per sample were analyzed. The analysis was conducted on a SSI S-Probe Monochromatized XPS Spectrometer which uses an Al-Kα-X-ray source (1486.6 eV) with an Omni Focus III small area lens and multichannel detector. A concentric hemispherical analyzer (CHA) was operated in the constant analyzer transmission mode to measure the binding energies of emitted photoelectrons. The binding energy scale was calibrated by the Au4f7/2 peak at 83.9 eV, and the linearity was verified by the Cu3p1/2 and Cu2p3/2 peaks at 76.5 and 932.5 eV respectively. Survey spectra were collected from 0 to 1100 eV with pass energy of 160 eV, and high-resolution C1s spectra were collected for each element detected with pass energy of 10 eV. Survey and high resolution spectra were collected at a 65° take off angle, defined as the angle spanned by the electron path to the analyzer and the sample surface. All spectra were referenced by setting the hydrocarbon C1s peak to 285.0 eV to compensate for residual charging effects. Data for percent atomic composition and atomic ratios were calculated using the manufacturer supplied sensitivity factor.
To evaluate the differences in amounts of protein in nanotubes, X-ray photoelectron spectroscopy (XPS) analysis was carried out. […] LYS and BSA adsorbed surfaces were used as controls. There is a steady increase in N/C ratios with increasing amounts of protein loaded into the nanotubes. A more precise way to characterize protein on the surface is to determine the fraction of C—N and N—C═O peaks in overall C1s peak. The C—N and N—C═O peaks are characteristic of proteins which are at a shift of 0.8 eV and 1.8 eV respectively from the C—C peak (285 eV). Thus, high resolution C1s scans were taken and the peak fit analysis software provided with the XPS instrument was used to determine % of C—N and N—C═O in the overall C1s peak (Table 3). A convolution of Gaussian components was assumed for all the peaks. There is an increase in the intensity for the […], C—N and N—C═O peaks with increasing amounts of proteins loaded into the nanotubes.

Substance | release from the nanotubes compared to that of BSA (in words) [1] | time point at which all the protein is released from the nanotubes ([1]; 200 μg loaded) | time point at which all the protein is released from the nanotubes ([1]; 400 μg loaded) | time point at which all the protein is released from the nanotubes ([1]; 800 μg loaded) | Net charge @ pH 7.0 [2] | C—C fraction of overall C1s peak (high resolution XPS) [3] | C—N fraction of overall C1s peak (high resolution XPS) [3] | N/C ratio (XPS survey scan) [3] | N—C═O fraction of overall C1s peak (high resolution XPS) [3]
Lysozyme: model protein, smaller in size with net positive charge, loaded into titania nanotubes | much slower | 36 | 85 | 110 | +7 | 0.73 | 0.22 | 0.215 | 0.03
Bovine Serum Albumin: model protein, larger molecule with net negative charge, loaded into titania nanotubes |  | 25 | 50 | 65 | −18 | 0.81 | 0.11 | 0.123 | 0.08
